*1 amine or outer side, *2 acyl side, *3 side chain or, on linkers, in order; H or OH if unused. Where no end group is shown, it is not given here. Side-chain parts run from the residue outwards. [ ]: non-standard residue; d: D form. The star is where a group is joined. C20 diacid = O=C(O)CCCCCCCCCCCCCCCCCCC(=O)*; C18 diacid = O=C(O)CCCCCCCCCCCCCCCCC(=O)*; C16 diacid = O=C(O)CCCCCCCCCCCCCCC(=O)*; γGlu = O=C(O)[C@H](CCC(=O)[*:2])N[*:1]; NMeI = CC[C@H](C)[C@H](NC)C(=O)O; Pentanoyl = CCCCC(=O)*; AEEA = NCCOCCOCC(=O)O; Aib = CC(C)(N)C(=O)O
B1: SEQ ID NO 231 (peptide)
peptide: Ac-IVLSLD[dV]PIKLK([AEEA-γGlu-C20 diacid])KILLEQEKQKEQREQAETN[Aib]QILAQV-NH2
SMILES: CC[C@H](C)[C@H](NC(C)=O)C(=O)N[C@H](C(=O)N[C@@H](CC(C)C)C(=O)N[C@@H](CO)C(=O)N[C@@H](CC(C)C)C(=O)N[C@@H](CC(=O)O)C(=O)N[C@@H](C(=O)N1CCC[C@H]1C(=O)N[C@H](C(=O)N[C@@H](CCCCN)C(=O)N[C@@H](CC(C)C)C(=O)N[C@@H](CCCCNC(=O)COCCOCCNC(=O)CC[C@H](NC(=O)CCCCCCCCCCCCCCCCCCC(=O)O)C(=O)O)C(=O)N[C@@H](CCCCN)C(=O)N[C@H](C(=O)N[C@@H](CC(C)C)C(=O)N[C@@H](CC(C)C)C(=O)N[C@@H](CCC(=O)O)C(=O)N[C@@H](CCC(N)=O)C(=O)N[C@@H](CCC(=O)O)C(=O)N[C@@H](CCCCN)C(=O)N[C@@H](CCC(N)=O)C(=O)N[C@@H](CCCCN)C(=O)N[C@@H](CCC(=O)O)C(=O)N[C@@H](CCC(N)=O)C(=O)N[C@@H](CCCNC(=N)N)C(=O)N[C@@H](CCC(=O)O)C(=O)N[C@@H](CCC(N)=O)C(=O)N[C@@H](C)C(=O)N[C@@H](CCC(=O)O)C(=O)N[C@H](C(=O)N[C@@H](CC(N)=O)C(=O)NC(C)(C)C(=O)N[C@@H](CCC(N)=O)C(=O)N[C@H](C(=O)N[C@@H](CC(C)C)C(=O)N[C@@H](C)C(=O)N[C@@H](CCC(N)=O)C(=O)N[C@H](C(N)=O)C(C)C)[C@@H](C)CC)[C@@H](C)O)[C@@H](C)CC)[C@@H](C)CC)C(C)C)C(C)C
B2: SEQ ID NO 150 (peptide)
peptide: H-IVLSLD[dV]PIKLK([AEEA-AEEA-γGlu-C18 diacid])QILLKQERQKKQREQAEKNKQILEQV-NH2
SMILES: CC[C@H](C)[C@H](N)C(=O)N[C@H](C(=O)N[C@@H](CC(C)C)C(=O)N[C@@H](CO)C(=O)N[C@@H](CC(C)C)C(=O)N[C@@H](CC(=O)O)C(=O)N[C@@H](C(=O)N1CCC[C@H]1C(=O)N[C@H](C(=O)N[C@@H](CCCCN)C(=O)N[C@@H](CC(C)C)C(=O)N[C@@H](CCCCNC(=O)COCCOCCNC(=O)COCCOCCNC(=O)CC[C@H](NC(=O)CCCCCCCCCCCCCCCCC(=O)O)C(=O)O)C(=O)N[C@@H](CCC(N)=O)C(=O)N[C@H](C(=O)N[C@@H](CC(C)C)C(=O)N[C@@H](CC(C)C)C(=O)N[C@@H](CCCCN)C(=O)N[C@@H](CCC(N)=O)C(=O)N[C@@H](CCC(=O)O)C(=O)N[C@@H](CCCNC(=N)N)C(=O)N[C@@H](CCC(N)=O)C(=O)N[C@@H](CCCCN)C(=O)N[C@@H](CCCCN)C(=O)N[C@@H](CCC(N)=O)C(=O)N[C@@H](CCCNC(=N)N)C(=O)N[C@@H](CCC(=O)O)C(=O)N[C@@H](CCC(N)=O)C(=O)N[C@@H](C)C(=O)N[C@@H](CCC(=O)O)C(=O)N[C@@H](CCCCN)C(=O)N[C@@H](CC(N)=O)C(=O)N[C@@H](CCCCN)C(=O)N[C@@H](CCC(N)=O)C(=O)N[C@H](C(=O)N[C@@H](CC(C)C)C(=O)N[C@@H](CCC(=O)O)C(=O)N[C@@H](CCC(N)=O)C(=O)N[C@H](C(N)=O)C(C)C)[C@@H](C)CC)[C@@H](C)CC)[C@@H](C)CC)C(C)C)C(C)C
B3: SEQ ID NO 228 (peptide)
peptide: Pentanoyl-VLSLD[dV]PIGLK([γGlu-C20 diacid])KILLEQEKQKKQREQAETN[Aib]QILAQV-NH2
SMILES: CCCCC(=O)N[C@H](C(=O)N[C@@H](CC(C)C)C(=O)N[C@@H](CO)C(=O)N[C@@H](CC(C)C)C(=O)N[C@@H](CC(=O)O)C(=O)N[C@@H](C(=O)N1CCC[C@H]1C(=O)N[C@H](C(=O)NCC(=O)N[C@@H](CC(C)C)C(=O)N[C@@H](CCCCNC(=O)CC[C@H](NC(=O)CCCCCCCCCCCCCCCCCCC(=O)O)C(=O)O)C(=O)N[C@@H](CCCCN)C(=O)N[C@H](C(=O)N[C@@H](CC(C)C)C(=O)N[C@@H](CC(C)C)C(=O)N[C@@H](CCC(=O)O)C(=O)N[C@@H](CCC(N)=O)C(=O)N[C@@H](CCC(=O)O)C(=O)N[C@@H](CCCCN)C(=O)N[C@@H](CCC(N)=O)C(=O)N[C@@H](CCCCN)C(=O)N[C@@H](CCCCN)C(=O)N[C@@H](CCC(N)=O)C(=O)N[C@@H](CCCNC(=N)N)C(=O)N[C@@H](CCC(=O)O)C(=O)N[C@@H](CCC(N)=O)C(=O)N[C@@H](C)C(=O)N[C@@H](CCC(=O)O)C(=O)N[C@H](C(=O)N[C@@H](CC(N)=O)C(=O)NC(C)(C)C(=O)N[C@@H](CCC(N)=O)C(=O)N[C@H](C(=O)N[C@@H](CC(C)C)C(=O)N[C@@H](C)C(=O)N[C@@H](CCC(N)=O)C(=O)N[C@H](C(N)=O)C(C)C)[C@@H](C)CC)[C@@H](C)O)[C@@H](C)CC)[C@@H](C)CC)C(C)C)C(C)C
B4: SEQ ID NO 229 (peptide)
peptide: [NMeI]VLSLD[dV]PIGLK([γGlu-C20 diacid])KILLEQEKQKKQREQAETN[Aib]QILAQV-NH2
modifications: N-terminus assumed
SMILES: CC[C@H](C)[C@H](NC)C(=O)N[C@H](C(=O)N[C@@H](CC(C)C)C(=O)N[C@@H](CO)C(=O)N[C@@H](CC(C)C)C(=O)N[C@@H](CC(=O)O)C(=O)N[C@@H](C(=O)N1CCC[C@H]1C(=O)N[C@H](C(=O)NCC(=O)N[C@@H](CC(C)C)C(=O)N[C@@H](CCCCNC(=O)CC[C@H](NC(=O)CCCCCCCCCCCCCCCCCCC(=O)O)C(=O)O)C(=O)N[C@@H](CCCCN)C(=O)N[C@H](C(=O)N[C@@H](CC(C)C)C(=O)N[C@@H](CC(C)C)C(=O)N[C@@H](CCC(=O)O)C(=O)N[C@@H](CCC(N)=O)C(=O)N[C@@H](CCC(=O)O)C(=O)N[C@@H](CCCCN)C(=O)N[C@@H](CCC(N)=O)C(=O)N[C@@H](CCCCN)C(=O)N[C@@H](CCCCN)C(=O)N[C@@H](CCC(N)=O)C(=O)N[C@@H](CCCNC(=N)N)C(=O)N[C@@H](CCC(=O)O)C(=O)N[C@@H](CCC(N)=O)C(=O)N[C@@H](C)C(=O)N[C@@H](CCC(=O)O)C(=O)N[C@H](C(=O)N[C@@H](CC(N)=O)C(=O)NC(C)(C)C(=O)N[C@@H](CCC(N)=O)C(=O)N[C@H](C(=O)N[C@@H](CC(C)C)C(=O)N[C@@H](C)C(=O)N[C@@H](CCC(N)=O)C(=O)N[C@H](C(N)=O)C(C)C)[C@@H](C)CC)[C@@H](C)O)[C@@H](C)CC)[C@@H](C)CC)C(C)C)C(C)C
B5: SEQ ID NO 13 (peptide)
peptide: H-IVLSLD[dV]PIKLK([γGlu-C16 diacid])QILLKQERQKKQREQAEKNVQILEQV-NH2
SMILES: CC[C@H](C)[C@H](N)C(=O)N[C@H](C(=O)N[C@@H](CC(C)C)C(=O)N[C@@H](CO)C(=O)N[C@@H](CC(C)C)C(=O)N[C@@H](CC(=O)O)C(=O)N[C@@H](C(=O)N1CCC[C@H]1C(=O)N[C@H](C(=O)N[C@@H](CCCCN)C(=O)N[C@@H](CC(C)C)C(=O)N[C@@H](CCCCNC(=O)CC[C@H](NC(=O)CCCCCCCCCCCCCCC(=O)O)C(=O)O)C(=O)N[C@@H](CCC(N)=O)C(=O)N[C@H](C(=O)N[C@@H](CC(C)C)C(=O)N[C@@H](CC(C)C)C(=O)N[C@@H](CCCCN)C(=O)N[C@@H](CCC(N)=O)C(=O)N[C@@H](CCC(=O)O)C(=O)N[C@@H](CCCNC(=N)N)C(=O)N[C@@H](CCC(N)=O)C(=O)N[C@@H](CCCCN)C(=O)N[C@@H](CCCCN)C(=O)N[C@@H](CCC(N)=O)C(=O)N[C@@H](CCCNC(=N)N)C(=O)N[C@@H](CCC(=O)O)C(=O)N[C@@H](CCC(N)=O)C(=O)N[C@@H](C)C(=O)N[C@@H](CCC(=O)O)C(=O)N[C@@H](CCCCN)C(=O)N[C@@H](CC(N)=O)C(=O)N[C@H](C(=O)N[C@@H](CCC(N)=O)C(=O)N[C@H](C(=O)N[C@@H](CC(C)C)C(=O)N[C@@H](CCC(=O)O)C(=O)N[C@@H](CCC(N)=O)C(=O)N[C@H](C(N)=O)C(C)C)[C@@H](C)CC)C(C)C)[C@@H](C)CC)[C@@H](C)CC)C(C)C)C(C)C
B6: SEQ ID NO 230 (peptide)
peptide: Ac-IVLSLD[dV]PIKLK([AEEA-γGlu-C20 diacid])KILLEQEKQKKQREQAETN[Aib]QILAQV-NH2
SMILES: CC[C@H](C)[C@H](NC(C)=O)C(=O)N[C@H](C(=O)N[C@@H](CC(C)C)C(=O)N[C@@H](CO)C(=O)N[C@@H](CC(C)C)C(=O)N[C@@H](CC(=O)O)C(=O)N[C@@H](C(=O)N1CCC[C@H]1C(=O)N[C@H](C(=O)N[C@@H](CCCCN)C(=O)N[C@@H](CC(C)C)C(=O)N[C@@H](CCCCNC(=O)COCCOCCNC(=O)CC[C@H](NC(=O)CCCCCCCCCCCCCCCCCCC(=O)O)C(=O)O)C(=O)N[C@@H](CCCCN)C(=O)N[C@H](C(=O)N[C@@H](CC(C)C)C(=O)N[C@@H](CC(C)C)C(=O)N[C@@H](CCC(=O)O)C(=O)N[C@@H](CCC(N)=O)C(=O)N[C@@H](CCC(=O)O)C(=O)N[C@@H](CCCCN)C(=O)N[C@@H](CCC(N)=O)C(=O)N[C@@H](CCCCN)C(=O)N[C@@H](CCCCN)C(=O)N[C@@H](CCC(N)=O)C(=O)N[C@@H](CCCNC(=N)N)C(=O)N[C@@H](CCC(=O)O)C(=O)N[C@@H](CCC(N)=O)C(=O)N[C@@H](C)C(=O)N[C@@H](CCC(=O)O)C(=O)N[C@H](C(=O)N[C@@H](CC(N)=O)C(=O)NC(C)(C)C(=O)N[C@@H](CCC(N)=O)C(=O)N[C@H](C(=O)N[C@@H](CC(C)C)C(=O)N[C@@H](C)C(=O)N[C@@H](CCC(N)=O)C(=O)N[C@H](C(N)=O)C(C)C)[C@@H](C)CC)[C@@H](C)O)[C@@H](C)CC)[C@@H](C)CC)C(C)C)C(C)C

Biological target: human corticotropin-releasing factor 2a (CRF2a receptor) (human), Q13324
Sequence (Q13324 20-411): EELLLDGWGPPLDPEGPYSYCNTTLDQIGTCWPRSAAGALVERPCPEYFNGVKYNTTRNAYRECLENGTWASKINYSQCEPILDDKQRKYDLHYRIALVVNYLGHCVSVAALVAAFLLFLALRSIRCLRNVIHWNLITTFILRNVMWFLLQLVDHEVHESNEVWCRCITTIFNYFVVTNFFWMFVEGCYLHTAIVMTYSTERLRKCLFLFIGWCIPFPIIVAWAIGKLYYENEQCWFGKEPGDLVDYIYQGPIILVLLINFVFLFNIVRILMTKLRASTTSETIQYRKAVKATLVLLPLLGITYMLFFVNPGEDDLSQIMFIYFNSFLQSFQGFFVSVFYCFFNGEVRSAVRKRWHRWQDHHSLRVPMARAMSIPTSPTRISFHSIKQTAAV
Experiment: cell-based or functional assay

EC50 [nM] (cAMP) | Binder
0.28 nM | B1
0.25 nM | B2
0.19 nM | B3
0.11 nM | B4
0.15 nM | B5
0.16 nM | B6

From patent US20260001928A1 (CORTERIA PHARMACEUTICALS, priority 2022, published 2026)
